The results in this text go back to paper PMC6182161 (Nucleic Acids Research, 2018).

One assay has as its target T1, purified Flag-NAT10 (UniProt Q9H0A0 1-1025).
T1 sequence (looked up): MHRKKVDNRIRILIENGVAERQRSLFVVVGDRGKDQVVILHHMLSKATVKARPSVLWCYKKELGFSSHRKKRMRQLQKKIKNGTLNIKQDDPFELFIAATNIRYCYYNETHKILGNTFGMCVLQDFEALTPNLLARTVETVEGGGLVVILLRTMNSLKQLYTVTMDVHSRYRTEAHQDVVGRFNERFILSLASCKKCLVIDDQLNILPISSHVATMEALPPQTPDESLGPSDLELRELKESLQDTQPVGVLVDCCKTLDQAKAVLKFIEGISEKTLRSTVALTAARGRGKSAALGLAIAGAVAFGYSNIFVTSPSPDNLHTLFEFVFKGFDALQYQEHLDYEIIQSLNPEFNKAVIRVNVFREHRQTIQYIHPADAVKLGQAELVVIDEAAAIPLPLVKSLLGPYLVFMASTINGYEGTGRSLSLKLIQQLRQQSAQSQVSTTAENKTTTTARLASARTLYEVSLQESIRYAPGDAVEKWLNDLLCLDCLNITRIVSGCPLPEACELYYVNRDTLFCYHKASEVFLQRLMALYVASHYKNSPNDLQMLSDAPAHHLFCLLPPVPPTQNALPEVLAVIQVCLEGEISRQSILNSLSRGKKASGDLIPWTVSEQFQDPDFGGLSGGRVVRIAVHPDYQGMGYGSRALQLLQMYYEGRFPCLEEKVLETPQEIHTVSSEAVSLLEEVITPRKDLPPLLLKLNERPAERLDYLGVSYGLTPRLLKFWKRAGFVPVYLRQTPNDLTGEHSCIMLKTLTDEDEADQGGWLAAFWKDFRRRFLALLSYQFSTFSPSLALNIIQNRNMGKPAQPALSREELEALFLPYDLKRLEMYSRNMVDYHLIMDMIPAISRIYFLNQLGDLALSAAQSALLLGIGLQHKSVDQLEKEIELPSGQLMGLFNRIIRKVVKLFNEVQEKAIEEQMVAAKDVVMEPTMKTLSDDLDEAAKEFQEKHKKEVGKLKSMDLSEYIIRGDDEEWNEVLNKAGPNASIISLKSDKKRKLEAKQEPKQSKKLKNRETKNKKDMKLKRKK
In words: pull-down.

For a further assay, the target named is T2, Flag-NAT10 GE (UniProt Q9H0A0 1-1025, G641E).
T2 sequence (looked up): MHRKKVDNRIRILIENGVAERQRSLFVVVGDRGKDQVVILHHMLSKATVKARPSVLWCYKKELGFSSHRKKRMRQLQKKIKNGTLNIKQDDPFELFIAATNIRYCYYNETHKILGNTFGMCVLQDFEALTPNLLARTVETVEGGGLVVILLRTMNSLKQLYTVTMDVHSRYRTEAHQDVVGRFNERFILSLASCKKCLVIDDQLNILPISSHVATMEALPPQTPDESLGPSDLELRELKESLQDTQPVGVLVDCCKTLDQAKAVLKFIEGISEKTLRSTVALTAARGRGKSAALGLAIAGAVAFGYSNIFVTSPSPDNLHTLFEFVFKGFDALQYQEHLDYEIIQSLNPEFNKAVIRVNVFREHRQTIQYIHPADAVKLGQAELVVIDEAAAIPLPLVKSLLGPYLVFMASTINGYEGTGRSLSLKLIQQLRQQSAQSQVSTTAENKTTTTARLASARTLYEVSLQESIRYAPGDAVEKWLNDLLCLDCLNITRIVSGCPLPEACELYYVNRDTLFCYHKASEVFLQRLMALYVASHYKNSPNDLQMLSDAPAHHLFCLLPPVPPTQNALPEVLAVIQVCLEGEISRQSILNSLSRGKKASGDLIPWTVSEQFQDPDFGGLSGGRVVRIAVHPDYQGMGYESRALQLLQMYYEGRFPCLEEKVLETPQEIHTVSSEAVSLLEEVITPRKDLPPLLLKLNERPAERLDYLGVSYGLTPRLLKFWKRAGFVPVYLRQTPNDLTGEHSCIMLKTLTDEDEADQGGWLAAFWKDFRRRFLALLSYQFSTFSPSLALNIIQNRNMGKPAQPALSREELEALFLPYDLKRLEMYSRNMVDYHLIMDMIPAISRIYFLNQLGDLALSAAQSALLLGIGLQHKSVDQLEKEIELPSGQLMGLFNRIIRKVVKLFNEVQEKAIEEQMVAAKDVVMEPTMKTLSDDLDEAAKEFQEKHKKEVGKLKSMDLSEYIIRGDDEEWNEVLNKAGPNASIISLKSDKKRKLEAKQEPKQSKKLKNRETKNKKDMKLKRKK
In words: pull-down.

B1: GST-Che-1 (natural protein, UniProt Q9NY61 1-560, looked up)
chain: MAGPQPLALQLEQLLNPRPSEADPEADPEEATAARVIDRFDEGEDGEGDFLVVGSIRKLASASLLDTDKRYCGKTTSRKAWNEDHWEQTLPGSSDEEISDEEGSGDEDSEGLGLEEYDEDDLGAAEEQECGDHRESKKSRSHSAKTPGFSVQSISDFEKFTKGMDDLGSSEEEEDEESGMEEGDDAEDSQGESEEDRAGDRNSEDDGVVMTFSSVKVSEEVEKGRAVKNQIALWDQLLEGRIKLQKALLTTNQLPQPDVFPLFKDKGGPEFSSALKNSHKALKALLRSLVGLQEELLFQYPDTRYLVDGTKPNAGSEEISSEDDELVEEKKQQRRRVPAKRKLEMEDYPSFMAKRFADFTVYRNRTLQKWHDKTKLASGKLGKGFGAFERSILTQIDHILMDKERLLRRTQTKRSVYRVLGKPEPAAQPVPESLPGEPEILPQAPANAHLKDLDEEIFDDDDFYHQLLRELIERKTSSLDPNDQVAMGRQWLAIQKLRSKIHKKVDRKASKGRKLRFHVLSKLLSFMAPIDHTTMNDDARTELYRSLFGQLHPPDEGHGD
B1: the binding result with purified Flag-NAT10 and with Flag-NAT10 GE was “binds” each time.

B2: GST-Che-1-N (domain or fragment, UniProt Q9NY61 1-124, looked up)
chain: MAGPQPLALQLEQLLNPRPSEADPEADPEEATAARVIDRFDEGEDGEGDFLVVGSIRKLASASLLDTDKRYCGKTTSRKAWNEDHWEQTLPGSSDEEISDEEGSGDEDSEGLGLEEYDEDDLGA
On to B2, for which the binding result in the assay with purified Flag-NAT10 is “binds”.

B3: GST-Che-1-M (domain or fragment, UniProt Q9NY61 125-246, looked up)
chain: AEEQECGDHRESKKSRSHSAKTPGFSVQSISDFEKFTKGMDDLGSSEEEEDEESGMEEGDDAEDSQGESEEDRAGDRNSEDDGVVMTFSSVKVSEEVEKGRAVKNQIALWDQLLEGRIKLQK
As to B3, the binding result with purified Flag-NAT10 is recorded as “binds”.

B4: GST-Sirt1 (enzyme, UniProt Q96EB6 1-747, looked up)
chain: MADEAALALQPGGSPSAAGADREAASSPAGEPLRKRPRRDGPGLERSPGEPGGAAPEREVPAAARGCPGAAAAALWREAEAEAAAAGGEQEAQATAAAGEGDNGPGLQGPSREPPLADNLYDEDDDDEGEEEEEAAAAAIGYRDNLLFGDEIITNGFHSCESDEEDRASHASSSDWTPRPRIGPYTFVQQHLMIGTDPRTILKDLLPETIPPPELDDMTLWQIVINILSEPPKRKKRKDINTIEDAVKLLQECKKIIVLTGAGVSVSCGIPDFRSRDGIYARLAVDFPDLPDPQAMFDIEYFRKDPRPFFKFAKEIYPGQFQPSLCHKFIALSDKEGKLLRNYTQNIDTLEQVAGIQRIIQCHGSFATASCLICKYKVDCEAVRGDIFNQVVPRCPRCPADEPLAIMKPEIVFFGENLPEQFHRAMKYDKDEVDLLIVIGSSLKVRPVALIPSSIPHEVPQILINREPLPHLHFDVELLGDCDVIINELCHRLGGEYAKLCCNPVKLSEITEKPPRTQKELAYLSELPPTPLHVSEDSSSPERTSPPDSSVIVTLLDQAAKSNDDLDVSESKGCMEEKPQEVQTSRNVESIAEQMENPDLKNVGSSTGEKNERTSVAGTVRKCWPNRVAKEQISRRLDGNQYLFLPPNRYIFHGAEVYSDSEDDVLSSSSCGSNSDSGTCQSPSLEEPMEDESEIEEFYNGLEDEPDVPERAGGAGFGTDGDDQEAINEAISVKQEVTDMNYPSNKS
On to B4, for which the binding result with purified Flag-NAT10 is listed as “binds”.
